Measurements as given in publication PMC4072592.

Columns and labels:
[1] = target: N-PYM-GFP (S2 cells) (Drosophila) (UniProt P82804); assay: co-IP + cross-linking; as the native GFP-Trap IP from S2 cell extracts, but extracts cross-linked with 1 mM DSP for 1 h at 4°C before the IP; blots quantified by densitometry
[2] = target: ΔC-PYM-GFP (S2 cells) (Drosophila); assay: as above
[3] = target: N-PYM-GFP (S2 cells) (Drosophila) (UniProt P82804); assay: co-IP; GFP-Trap beads on cytoplasmic extracts of S2 cells expressing GFP or GFP-tagged FL-, ΔC- or N-PYM, native conditions; blots of Mago and Y14 quantified by densitometry, coIP efficiency as percent of the GFP enrichment

Chain of Y14-Mago heterodimer, endogenous in S2 cells (Q9V535 whole entry): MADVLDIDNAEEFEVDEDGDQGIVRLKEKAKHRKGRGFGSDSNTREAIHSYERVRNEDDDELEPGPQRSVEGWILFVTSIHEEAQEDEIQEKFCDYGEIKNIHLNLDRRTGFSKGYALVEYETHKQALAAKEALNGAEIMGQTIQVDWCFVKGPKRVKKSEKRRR
Chain of Y14-Mago heterodimer, endogenous in S2 cells (P49028 whole entry): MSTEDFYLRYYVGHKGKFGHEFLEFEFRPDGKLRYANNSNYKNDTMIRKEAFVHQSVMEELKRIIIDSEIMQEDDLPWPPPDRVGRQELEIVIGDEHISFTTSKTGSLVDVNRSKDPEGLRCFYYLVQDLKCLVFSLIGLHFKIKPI
Chain of N-PYM-GFP (S2 cells) (Drosophila) (P82804 whole entry): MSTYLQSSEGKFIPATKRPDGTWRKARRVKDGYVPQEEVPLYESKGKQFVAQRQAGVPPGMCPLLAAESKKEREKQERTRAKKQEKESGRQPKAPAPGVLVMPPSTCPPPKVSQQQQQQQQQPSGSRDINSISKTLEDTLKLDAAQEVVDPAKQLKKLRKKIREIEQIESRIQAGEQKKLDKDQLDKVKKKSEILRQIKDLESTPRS
Chain of ΔC-PYM-GFP (S2 cells) (Drosophila) (P82804 whole entry, stated change not applied): as the sequence (P82804 whole entry) above

coIP efficiency of Mago (percent of the GFP enrichment), DSP cross-linked [1]: 84.9%
coIP efficiency of Mago (percent of the GFP enrichment), DSP cross-linked [2]: 98.9%
fold increase of binding upon DSP treatment against native [2]: 3.6 fold
coIP efficiency of Mago (percent of the GFP enrichment), native [3]: 0.92%
Substance: Y14-Mago heterodimer, endogenous in S2 cells (from UniProt Q9V535 1-165; P49028 1-147) (complex)
